Test results: US20160237162A1 (AstraZeneca / MedImmune, published 2016)
Changes are numbered by the printed parent chain. Names may count otherwise.

B1: 1A4 antibody, human IgG1 (antibody, V domains shown)
VH: EVQLLESGGGLVQPGGSLRLSCAASGFTFSYYYMQWVRQAPGKGLEWVSYIGSSGGVTNYADSVKGRFTISRDNSKNTLYLQMNSLRAEDTAVYYCARVGLGDAFDIWGQGTMVTVSS
VL: QSVLTQPPSASGTPGQRVTISCSGSSSNIGLNYVSWYQQLPGTAPKLLISRNNQRPSGVPDRFSGSKSGTSASLAISGLRSEDEADYYCAAWDDSPPGEAFGGGTKLTVL
notes: IgG1, lambda
B2: Clone 16 antibody (CL16), human IgG1 (antibody, V domains shown)
VH: B1 VH
VL: B1 VL with S2Y, V3E, I20M, P96L, P97S, A100V
notes: also called parental IgG; Clone 16-PA
B3: 2C2-YTE monoclonal antibody (antibody, human IgG1, V domains shown)
VH: B1 VH
VL: B1 VL with S26L
B4: clone 8A3 Fab (Fab, V domains shown)
VH: B1 VH
VL: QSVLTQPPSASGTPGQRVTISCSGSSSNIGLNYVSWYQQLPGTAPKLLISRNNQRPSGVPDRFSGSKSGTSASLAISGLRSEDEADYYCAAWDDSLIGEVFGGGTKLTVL
notes: Fab, single VL mutant (S96aI) of GL-P6
B5: 2C2 monoclonal antibody, human IgG1 (antibody, V domains shown)
VH: B1 VH
VL: B1 VL with S26L
B6: 3E1 antibody, human IgG1 (antibody, V domains shown)
VH: B1 VH
VL: B1 VL with S23R
notes: IgG1, lambda
B7: clone 6E3 Fab (Fab, V domains shown)
VH: B1 VH
VL: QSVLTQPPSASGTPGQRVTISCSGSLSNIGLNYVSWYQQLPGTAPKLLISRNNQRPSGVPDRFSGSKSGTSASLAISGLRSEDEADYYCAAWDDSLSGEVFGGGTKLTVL
notes: Fab, single VL mutant (S27L) of GL-P6
B8: clone 4H6 Fab (Fab, V domains shown)
VH: B1 VH
VL: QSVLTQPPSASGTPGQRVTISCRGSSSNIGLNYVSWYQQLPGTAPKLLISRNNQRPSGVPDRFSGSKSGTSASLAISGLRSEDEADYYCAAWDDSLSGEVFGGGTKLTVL
notes: Fab, single VL mutant (S24R) of GL-P6
B9: P2B11 antibody, human IgG1 (antibody, V domains shown)
VH: B1 VH
VL: not shown
B10: clone 4C4 Fab (Fab, V domains shown)
VH: B1 VH
VL: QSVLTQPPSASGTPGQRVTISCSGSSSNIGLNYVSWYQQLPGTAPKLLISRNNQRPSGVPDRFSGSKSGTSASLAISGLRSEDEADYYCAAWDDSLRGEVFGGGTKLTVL
notes: Fab, single VL mutant (S96aR) of GL-P6
B11: clone 2D1 Fab (Fab, V domains shown)
VH: B1 VH
VL: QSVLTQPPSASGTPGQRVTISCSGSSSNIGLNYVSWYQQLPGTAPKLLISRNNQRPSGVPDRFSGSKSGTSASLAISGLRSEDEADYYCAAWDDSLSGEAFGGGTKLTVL
notes: Fab, single VL mutant (V97A) of GL-P6
B12: 2F10 antibody, human IgG1 (antibody, V domains shown)
VH: B1 VH
VL: B1 VL with P97S

Tests used:
[1] = target: T1, human HER3 on human cancer cells (human, UniProt P21860 20-1342); test: cell-based or functional assay
[2] = target: T2, Recombinant mouse HER3(ECD)/Fc chimera (mouse, UniProt Q61526 20-641); test: ELISA with purified IgG on murine HER3
T2 construct: Generated in house; also called murine HER3 (as a HER3-Fc fusion); murine HER3; not shown: Fc part and any linker or tag of the in-house chimera

[3] = target: T3, Recombinant human HER3(ECD)/Fc chimera (human, UniProt P21860 20-643, biotinylated in the capture ELISA of section 1.9); test: HRG-HER3 ELISA: plate coated with HRG, antibody dilutions premixed with 5 ug/ml recombinant HER3, bound HER3 detected by anti-His HRP; blocked ligand HRG
T3 construct: extracellular domain; Bought (R&D Systems); The ELISA sections say only 'recombinant HER3 protein' / 'biotinylated HER3 protein' / 'recombinant HER3'; also called recombinant HER3 protein; biotinylated HER3 protein; not shown: Fc, linker peptide and C-terminal 6x Histidine-tag

[4] = target: T1, human HER3 on human cancer cells; test: cell-based or functional assay; remark: listed apart in the source
[5] = target: T1, human HER3 on human cancer cells; test: cell-based or functional assay; remark: listed apart in the source
[6] = target: T3, Recombinant human HER3(ECD)/Fc chimera; test: Fab capture ELISA with biotinylated HER3, against GL-P6
Experimental: (§1) Briefly, this capture ELISA involved coating individual wells of a 96-well Maxisorp Immunoplate with approximately 50 ng of a sheep anti-human Fd antibody (Biodesign International, ME) in a carbonate buffer at pH 8.5 overnight at 4° C. The next day, the plate was blocked with 3% BSA in PBS buffer for 1 h at room temperature. Fab supernatant was then added to the plate and incubated at room temperature for 1 hr. After washing, 0.1 μg of biotinylated HER3 protein was added to the well and the mixture was incubated for 1.5 h at room temperature. This was followed by incubation with neutravidin-horseradish peroxydase (HRP) conjugate (Pierce, Ill.) for approximately 40 min at room temperature. HRP activity was detected with tetra-methyl-benzidine (TMB) substrate and the reaction quenched with 0.2 M H₂SO₄. Plates were read at 450 nm.
(§2) The Fab concentration was determined by comparing the ELISA signals with the signals generated by the reference Fab.

[7] = target: T1, human HER3 on human cancer cells; test: cell-based or functional assay; remark: listed apart in the source
[8] = target: T1, human HER3 on human cancer cells; test: cell-based or functional assay; remark: listed apart in the source
[9] = target: T1, human HER3 on human cancer cells; test: cell-based or functional assay; remark: listed apart in the source
[10] = target: T1, human HER3 on human cancer cells; test: cell-based or functional assay; remark: listed apart in the source
[11] = target: T1, human HER3 on human cancer cells; test: cell-based or functional assay; remark: listed apart in the source
[12] = target: T1, human HER3 on human cancer cells; test: cell-based or functional assay; remark: listed apart in the source
[13] = target: T1, human HER3 on human cancer cells; test: cell-based or functional assay; remark: listed apart in the source
[14] = target: T1, human HER3 on human cancer cells; test: cell-based or functional assay; remark: listed apart in the source
[15] = target: T3, Recombinant human HER3(ECD)/Fc chimera; test: Fab capture ELISA with biotinylated HER3
Experimental: as §1, §2

| BT474 6-day growth % Max inhibition [1] [%] | BT474 clonogenic assay % Max inhibition [1] [%] | BT474 pAKT assay % Max inhibition [1] [%] | T47D HRG inducible pHer3 % Max inhibition [1] [%] | also measured | Binder |
| --- | --- | --- | --- | --- | --- |
| 54.5 | 81.3 | 62 | 84 | binding result [2]: binds | B1 |
| 46 | 79.8 | 64 | 75 | IC50 (read off the curve) [3]: ~0.6 µg/mL | B2 |
|  |  |  |  | IC50 (read off the curve); suppression of pHER3 (pHER3 ELISA), BT-474 cells [4]: ~0.003 ug/ml; IC50 (read off the curve); suppression of pAKT (Meso-Scale Discovery assay), BT-474 cells [5]: ~0.003 ug/ml | B3 |
|  |  |  |  | fold binding improvement [6]: 3.5 fold | B4 |
|  | 87.2 | 61 | 85 | HRG-induced pHER3 ELISA in MCF-7 cells; potency by IC50 against MM and AMG [7]: ~5 fold; IC50; suppression of HRG-induced pHER3 (pHER3 ELISA), MCF-7 cells [8]: 8.4 ng/ml; IC50; growth suppression (CellTiter-Glo, 6 days), HMCB melanoma cells [9]: 0.027 µg/mL; IC50; suppression of pHER3 (pHER3 ELISA), HCC827 cells [10]: 2 ng/ml; IC50; suppression of pHER3 (pHER3 ELISA), EGFR-TKI (gefitinib)-resistant HCC827 cells [11]: 3.5 ng/ml; IC50; suppression of pHER3 (pHER3 ELISA), Kato III cells [12]: 0.8 ng/ml; IC50; suppression of pHER3 (pHER3 ELISA), BT-474 cells [4]: 0.004 ug/ml; IC50; suppression of pAKT (Meso-Scale Discovery assay), MKN45 cells [13]: 2.9 ng/ml; IC50; suppression of pAKT (Meso-Scale Discovery assay), Kato III cells [14]: 0.9 ng/ml; IC50; suppression of pAKT (Meso-Scale Discovery assay), BT-474 cells [5]: 0.003 ug/ml | B5 |
| 48.1 | 79.2 | 66 | 86 | binding result [2]: binds | B6 |
|  |  |  |  | binding result [15]: binds | B7 |
|  |  |  |  | binding result [15]: binds | B8 |
| 47.5 | 87.1 | 62 | 85 |  | B9 |
|  |  |  |  | fold binding improvement [6]: 8.6 fold | B10 |
|  |  |  |  | binding result [15]: binds | B11 |
| 49 | 80.4 | 62 | 86 |  | B12 |
